Like-named read-outs stand apart in the source and are kept apart here.
Tests used:
[1] = comparison, Israel et al., 2019; cited from earlier work
[2] = system: blood-brain barrier (BBB); test: BBB penetration: nanoconjugate fluorescence in brain parenchyma of healthy mice by optical imaging
Procedure: Healthy Mice: Eight to nine-week-old BALB/C and BLACK-6 mice were obtained from Charles River Laboratories (Wilmington, Mass., USA). […] Three to four mice of each sex were used for each experiment.
Nanoconjugates were dissolved freshly in PBS (pH 7.4) prior to each experiment and injected intravenously (i.v.) into the lateral tail vein. Mice were anesthetized with isoflurane beforehand, and their tails were briefly warmed to facilitate injections. […] The drug injection volume was kept constant at 150 μL. After each injection, mice were promptly returned to their cages. Eight to nine-week-old B116 mice were obtained from Charles River Laboratories (Wilmington, Mass., USA). […] Three to four mice of each sex were used for each experiment. Nanoconjugates were dissolved freshly in PBS (pH 7.4) prior to each experiment and injected intravenously (i.v.) into the lateral tail vein. […] All mice were euthanized 2 h post drug injection. Mice were anesthetized with isoflurane beforehand and their tails were briefly warmed to facilitate injections. All conjugates were administered as a single dose, as indicated for each experiment (4× or 8×). […]
In this analysis, 20×10 μm^2 or 10×10 μm^2 sized regions of interest (ROI) were randomly overlaid on images showing the vasculature, explicitly avoiding blood vessels. For FIG. 30A, the ROI was drawn around all Neun stained nucleuses detected. Intensity measurements and positions were then obtained for each ROI after it was separately overlaid on the image showing nanoconjugate fluorescence.
Fluorescence measurements were thus based on the anatomy of the cerebral vasculature rather than nanoconjugate labeling of whole sections or extracts of brain parenchyma and were therefore unbiased and intentionally avoiding the nanoconjugate load in the cerebral vasculature.
All nanoconjugate fluorescence measurements in brain parenchyma (e.g., FIGS. 14B-14C (1-3); 16B (1-3); 19B-19E; 20C-20D; and FIG. 22B) are presented as relative fluorescence intensities. […] Relative fluorescence measurements thus represent total fluorescence minus representative autofluorescence. […]

[3] = system: brain parenchyma
Procedure: To determine how nanoconjugate-associated fluorescence relates to the anatomy of the vasculature, the distance of each analyzed ROI was manually measured from the nearest blood vessel wall (using line tool in FIJI). For tumor bearing mice, 5 images per tumor tissue and 5 per brain tissue were analyzed for each mouse. Intensity values were then plotted against the location of the blood vessel wall and summarized in scatterplots (e.g., FIG. 14B).
Drug concentrations are listed with regard to total nanoconjugate content systemically injected. […] Referring to FIG. 14B, fluorescence measurements were obtained from 10 μm^2-sized regions of interest (ROI) that were randomly overlaid on regions devoid of vasculature shown as yellow squares on photograph 1 of FIG. 14A. Intensity measurements and positions were then obtained for each ROI and plotted against the location of the nearest blood vessel wall. FIG. 14C is set of charts: chart 1—Cortex; chart 2—Midbrain and chart 3 Hippocampus, illustrating average nanoconjugate fluorescence in the brain parenchyma measured following injections at four different drug concentrations. In this figure, fluorescence is shown as relative fluorescence, which is the measured nanoconjugate fluorescence after subtraction of autofluorescence imaged from PBS injected animals using similar acquisition settings.
FIG. 14B explores this relationship in a plot from all of the measurements (for each condition: 4 mice, 3-4 sections with 20 random measurements each). All fluorescence intensity measurements were conducted with 10 μm^2-sized regions of interest placed outside of tomato-lectin stained blood vessels (ROI as in Photograph 1 of FIG. 14A); the positions of these ROIs were then measured against the location of the nearest blood vessel wall to produce the scatterplot in FIG. 14B.
The resulting data were used as a metric to examine how well the mini nanodrug was able to travel from the vessels into the surrounding parenchyma and encounter brain cells. […] Nanoconjugate diffused fluorescence intensity vs. ‘distance from vasculature’ measurements in brain parenchyma of mice injected with nanoconjugates at a dose of 0.274 μmol/Kg. Fluorescence measurements were obtained from […] regions of interest (ROI) that were randomly overlaid on regions devoid of vasculature (shown by yellow squares in FIG. 22A). Intensity measurements and positions were then obtained for each ROI and plotted against the location of the nearest blood vessel wall.

[4] = system: blood-brain barrier (BBB); settings: Israel et al., 2019; cited from earlier work
[5] = not given; remark: listed apart in the source
[6] = 0.5, 1, 2 and 4 hours after injection
[7] = Zeta potential measurements (Zetasizer Nano ZS90); type: physicochemical; settings: in PBS; voltage 150 mV
Procedure: Zeta Potential Measurements: Synthesized conjugates were characterized with respect to their ζ potential using a Zetasizer Nano ZS90 (Malvern Instruments, Malvern, UK). Ten microliter aliquots of nanoconjugate samples were diluted in 0.99 mL PBS, and the voltage applied was 150 mV. Data represent the mean of three measurements±their standard deviation.

PMLA/LLL/AP2/rhodamine [P/LLL/AP2]
half-life in blood [1]: 1.28 h
time at which nanoconjugate fluorescence could not be distinguished from background of brain parenchyma ([2]; 0.068 μmol/kg i.v.): 240 min
time of maximal conjugate fluorescence in cortex parenchyma ([2]; 0.068 μmol/kg i.v.): 30 min
fluorescence intensity in normal brain ([2]; dose 8×): 30 units
fluorescence intensity decrease (slope), linear regression vs distance from vessel ([3]; 0.274 μmol/kg, 120 min): −0.272±0.07
γ-intercept of linear regression, fluorescence vs distance ([3]; 0.274 μmol/kg, 120 min): 17.49±0.8
γ-intercept of linear regression, fluorescence vs distance ([3]; 0.068 mol/kg, 120 min): 6.342±0.34
cortex Y intercepts of fluorescence vs distance curves (exponential fits) ([3]; cortex, 0.274 μmol/Kg): 14.7
half-life of first decline in brain parenchyma [4]: > 2 h
time independent plateau in parenchyma [4]: > 240 min
estimated parenchyma concentration (cortex, 120 min, 0.068 μmol/kg injection): 0.049 ± 0.001 µmol/mL
percentage of free serum drug detected in the brain (within 120 minutes after i.v. administration): ≥ 40%
serum concentration at 120 minutes ([5]; 0.068 μmol/kg injection): 1.15e+08 µM
serum drug concentration at 120 minutes post injection ([5]; 0.068 μmol/kg injection): 115 µM
serum half-life ([5]; i.v. 0.068 μmol/kg, single exponential decay fit): 1.28 h
Visibility of nanoconjugate around blood vessels in ex vivo brain slices [6]: visible around blood vessels for two hours and almost disappeared at 4 hours
ζ potential [7]: −11.6 mV

Reference: patent US20200206304A1, “METHODS AND COMPOSITIONS FOR EFFICIENT DELIVERY THROUGH MULTIPLE BIO BARRIERS” (Cedars-Sinai Medical Center, priority 2017, published 2020)
